Experimental findings from patent US20040147432A1 (MERCK, published 2004) are described below.

Assay [1] addresses T1, human melanin concentrating hormone type 2 receptor (MCH-2R) (human, UniProt Q969V1 1-340). Briefly: cell-based or functional assay.
Assay [2] deals with T2, human MCH-1R (human, UniProt Q99705 1-353). Briefly: cell-based or functional assay.
Assay [3] concerns the target T1, human melanin concentrating hormone …. Put plainly: cell-based or functional assay. The source holds these as a separate data set.
Assay [4] addresses T2, human MCH-1R. Briefly: cell-based or functional assay. The source holds these as a separate data set.
In assay [5] the target is T1, human melanin concentrating hormone …. Briefly: cell-based or functional assay. This is another data set of the same source.
Assay [6] concerns the target T2, human MCH-1R. Put plainly: cell-based or functional assay. The source holds these as a separate data set.
The target of assay [7] is T1, human melanin concentrating hormone …. Briefly: SPA competition with [125I]-human MCH (Phe13, Tyr19) on receptor membranes.
Assay [8] has the same target. Described as above. How it is done: (§1) For the SPA-based assay, WGA-PVT beads (NEN Life Sciences Products) were resuspended in Dulbecco's PBS with calcium and magnesium (500 mg beads in 4 ml PBS). […] The suspension was mixed gently for 20 minutes, 12.3 ml of assay buffer and protease inhibitors were added (final concentration given): 2 μg/ml leupeptin, 10 μM phosphoramidon, 40 μg/ml bacitracin, 5 μg/ml aprotinin, 0.1 mM Pefabloc.
(§2) Coated beads were kept on ice until use. […] Binding reactions were allowed to proceed at room temperature for 3 hours. Quantitation was performed by scintillation counting (TopCount device).
The source holds these as a separate data set.

Assay [9] has the same target. Described as above. How it is done: as §1, §2
This is another data set of the same source.

Assay [10] has as its target T2, human MCH-1R. The description is as above.
Assay [11] concerns the target T2, human MCH-1R. The description is as above. The procedure: as §1, §2
The source holds these as a separate data set.

Assay [12] has as its target T2, human MCH-1R. Put plainly: cell-based or functional assay. The source holds these as a separate data set.

Like-named read-outs stand apart in the source and are kept apart here. Bridges are numbered along the chain shown (N, C = ends). Where no end group is shown, it is not given here. [ ]: non-standard residue; d: D form. Arg(NO2) = N=C(NCCC[C@H](N)C(=O)O)N[N+](=O)[O-]

T1 sequence (Q969V1 whole entry, form in doubt): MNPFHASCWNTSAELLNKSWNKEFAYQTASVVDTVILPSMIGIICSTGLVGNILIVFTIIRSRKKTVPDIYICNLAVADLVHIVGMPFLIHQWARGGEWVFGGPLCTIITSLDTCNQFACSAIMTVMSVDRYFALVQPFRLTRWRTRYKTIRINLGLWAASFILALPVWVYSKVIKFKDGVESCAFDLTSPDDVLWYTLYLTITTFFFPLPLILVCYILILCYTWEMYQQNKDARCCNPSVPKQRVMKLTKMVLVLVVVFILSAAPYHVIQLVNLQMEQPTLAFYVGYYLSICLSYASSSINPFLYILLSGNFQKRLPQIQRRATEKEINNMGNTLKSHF
T2 sequence (Q99705 whole entry, form in doubt): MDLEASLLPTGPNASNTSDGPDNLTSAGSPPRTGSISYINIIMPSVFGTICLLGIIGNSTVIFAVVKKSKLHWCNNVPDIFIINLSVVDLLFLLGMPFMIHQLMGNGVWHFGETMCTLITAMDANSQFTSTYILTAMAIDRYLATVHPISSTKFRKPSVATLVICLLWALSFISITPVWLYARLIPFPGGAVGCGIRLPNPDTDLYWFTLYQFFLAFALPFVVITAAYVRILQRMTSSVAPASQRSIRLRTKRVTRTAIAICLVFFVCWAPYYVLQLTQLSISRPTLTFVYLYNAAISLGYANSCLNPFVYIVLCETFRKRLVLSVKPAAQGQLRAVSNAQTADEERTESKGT

B1: human MCH (melanin-concentrating hormone), SEQ. ID. NO. 1 (ligand)
peptide: DFDMLRCMLGRVYRPCWQV
modifications: disulfide 7-16 (inferred)
notes: cyclic 19-amino acid peptide; also called hMCH; mammalian MCH
B1: the “Activation % at 10 µM (aequorin functional assay)” value (shortened to “Activation % at 10 µM”) (in assay [1]; in the assay with human MCH-1R [2]; in assay [3]; with human MCH-1R [4]; in [5]; in the assay with human MCH-1R [6]) was 100% each time. Besides, the results for the “EC50 (aequorin functional assay)” value in [1], in assay [3] and in [5] were 30.7 nM, 30.7 nM and 44.7 nM, respectively. Besides, the IC50 turned out to be 0.5 nM in assay [7], 0.5 nM in assay [8] and 0.9 nM in [9].

B2: truncated form of human MCH, SEQ. ID. NO. 2 (peptide)
peptide: Ac-RCMLGRVYRPC-NH2
modifications: disulfide 2-11 (inferred)
notes: positions numbered 6-16 as in hMCH
For B2, the “Activation % at 10 µM” value with human MCH-1R [2] and with human MCH-1R [4] was 99% each time. Further, the “EC50 (aequorin functional assay)” value in the assay with human MCH-1R [2] and in the assay with human MCH-1R [4] was 20 nM each time. The IC50 in assay [7] was 2 nM; with human MCH-1R [10] it was 1.4 nM; in [8], 2 nM; with human MCH-1R [11], 0.5 nM.

B3: SEQ. ID. NO. 37 (peptide)
peptide: Ac-RCML[dA][Arg(NO2)]VYRPC-NH2
modifications: disulfide 2-11 (inferred)
notes: also called D-Ala^10, Arg(NO2)^11
As for B3, in the assay with human MCH-1R [12], the Activation % at 10 µM (aequorin functional assay) worked out at 0.1% and the EC50 (aequorin functional assay) was more than 10000 nM. Besides, in [1], the “Activation % at 10 µM” value is 34% and the “EC50 (aequorin functional assay)” value was determined as 260 nM. The IC50 in assay [7] came to 490 nM.

B4: SEQ. ID. NO. 40 (peptide)
peptide: XCMLGRVYRPC
modifications: not fully specified; (?NH2)-Arg at position 6
On to B4, for which the “Activation % at 10 µM” value in assay [3] is 103%; with human MCH-1R [4], 49%.
